{"source": "paper PMC7959165", "about": "(Molecular cell, 2020)", "binders": {"B1": {"name": "E. coli stringent starvation protein A (EcSspA) (natural protein, UniProt P0ACA3 1-212, looked up)", "chain": "MAVAANKRSVMTLFSGPTDIYSHQVRIVLAEKGVSFEIEHVEKDNPPQDLIDLNPNQSVPTLVDRELTLWESRIIMEYLDERFPHPPLMPVYPVARGESRLYMHRIEKDWYTLMNTIINGSASEADAARKQLREELLAIAPVFGQKPYFLSDEFSLVDCYLAPLLWRLPQLGIEFSGPGAKELKGYMTRVFERDSFLASLTEAEREMRLGRS"}}, "target": "E. coli RNAP σ^70 (E. coli, UniProt P00579 1-613)", "sequence (P00579 whole entry)": "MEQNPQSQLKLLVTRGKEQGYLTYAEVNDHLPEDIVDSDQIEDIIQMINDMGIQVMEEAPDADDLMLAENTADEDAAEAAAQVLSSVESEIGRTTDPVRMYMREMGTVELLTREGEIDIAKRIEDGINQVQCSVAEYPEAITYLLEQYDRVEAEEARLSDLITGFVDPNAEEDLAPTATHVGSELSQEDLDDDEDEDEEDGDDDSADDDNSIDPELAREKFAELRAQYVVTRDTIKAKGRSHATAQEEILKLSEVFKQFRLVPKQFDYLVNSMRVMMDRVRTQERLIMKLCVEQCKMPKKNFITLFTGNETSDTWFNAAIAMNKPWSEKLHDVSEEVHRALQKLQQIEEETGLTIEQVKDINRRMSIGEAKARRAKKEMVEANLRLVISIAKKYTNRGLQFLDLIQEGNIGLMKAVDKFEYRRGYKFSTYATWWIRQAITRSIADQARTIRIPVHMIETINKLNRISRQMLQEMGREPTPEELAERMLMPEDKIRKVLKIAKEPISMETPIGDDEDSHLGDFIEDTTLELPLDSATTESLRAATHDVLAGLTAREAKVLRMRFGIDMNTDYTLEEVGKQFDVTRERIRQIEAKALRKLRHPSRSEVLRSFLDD", "data": [{"binder": "B1", "values": [{"measurement": "binding result", "result": "binds"}]}]}
